Details in all cases: both partners purified
For test [1], the target named is T1, stoichiometric mixture of full-length Drosophila melanogaster H2A-H2B and H3-H4 (octamer-mix) (Drosophila melanogaster, UniProt P84051 1-124; P02283 1-123; P02299 1-136; P84040 1-103).
T1 construct: histone H2A, Drosophila melanogaster, full-length; histone H2B, Drosophila melanogaster, full-length; histone H3, Drosophila melanogaster, full-length; histone H4, Drosophila melanogaster, full-length; At 300 mM NaCl without APLF^AD this is a mixture of H2A-H2B dimers and H3-H4 tetramers, not a preformed octamer; also called stoichiometric core-histone mix; histone octamer; copies: 2 + 2 + 2 + 2
Briefly: native MS; octamer-mix and APLF^AD mixed at 1:0.25 to 1:3 octamer equivalent to APLF^AD, exchanged into 300 mM ammonium acetate pH 7.5; Exactive Plus EMR.

The target of test [2] is T1, stoichiometric mixture of full-length …. Briefly: ITC; 5 μM octamer-mix in the cell titrated with 90 μM APLF^AD in the syringe; 25 mM NaPi pH 7.0, 300 mM NaCl, 25°C; one set of sites model.
Test [3] deals with T2, Drosophila melanogaster histone H3-H4 complex, full-length (Drosophila melanogaster, UniProt P02299 1-136; P84040 1-103).
T2 construct: histone H3, Drosophila melanogaster, full-length; histone H4, Drosophila melanogaster, full-length; Eluted as a histone tetramer in SEC; H3 was 2H/13C/15N-labelled for NMR on H3-H4; also called (H3-H4)2; histone tetramer; copies: 2 + 2
In words: NMR titration; 20 μM [U-2H/13C/15N]H3-H4 incubated with 0, 10 or 20 μM APLF 459–474 peptide in 25 mM NaPi pH 7.0, 300 mM NaCl, then exchanged to 50 mM acetate pH 5; TROSY at 900 MHz, 308 K.

The results in this text go back to paper PMC9328677 (Science Advances, 2021).

B1: acidic domain of Homo sapiens APLF (APLF^AD, residues 450 to 511), wild type (domain or fragment)
chain: DEDNDNVGQPNEYDLNDSFLDDEEEDYEPTDEDSDWEPGKEDEEKEDVEELLKEAKRFMKRK
notes: acidic domain of human APLF (aprataxin and polynucleotide kinase-like factor), residues 450 to 511; 15N- or 2H/13C/15N-labelled for NMR; Intrinsically disordered; also called APLF^AD WT; WT; source: E. coli BL21 Rosetta2 (DE3), purified (HisTrap, TEV cleavage, anion exchange, second HisTrap)
For the molecule B1, in test [1], the “stoichiometry N” value is 2 APLF^AD per histone octamer equivalent.

B2: APLF^AD double anchor mutant Y462A/F468A (DA-34) (domain or fragment)
chain: DEDNDNVGQPNEADLNDSALDDEEEDYEPTDEDSDWEPGKEDEEKEDVEELLKEAKRFMKRK
notes: acidic domain of human APLF, residues 450 to 511; source: E. coli BL21 Rosetta2 (DE3), purified
In the case of B2, the binding result in test [2] was “binds”.

B3: SUMO-APLF^AD quadruple anchor mutant Y462A/F468A/Y476A/W485A (QA) (domain or fragment)
chain: DEDNDNVGQPNEADLNDSALDDEEEDAEPTDEDSDAEPGKEDEEKEDVEELLKEAKRFMKRK
notes: acidic domain of human APLF, residues 450 to 511; also called APLF^AD QA; source: E. coli BL21 Rosetta2 (DE3), purified; not shown: His tag, N-terminal, cleaved; SUMO, N-terminal, kept
With B3, in test [2], the binding result is on record as “binds”.

B4: SUMO-APLF^AD truncated QA mutant (QA-Δ, residues 449 to 490) (domain or fragment)
chain: LDEDNDNVGQPNEADLNDSALDDEEEDAEPTDEDSDAEPGKE
notes: human APLF residues 449 to 490; source: E. coli BL21 Rosetta2 (DE3), purified; not shown: His tag, N-terminal, cleaved; SUMO, N-terminal, kept
On to B4, for which, in test [2], the binding result is listed as “binds”.

B5: truncated APLF^AD construct corresponding to residues 449 to 490 (APLF^AD-Δ) (domain or fragment)
chain: GLDEDNDNVGQPNEYDLNDSFLDDEEEDYEPTDEDSDWEPGKE
notes: N-terminal Gly as leftover from TEV cleavage site; human APLF residues 449 to 490; Used for crystallisation with tailless Xl. histones and in ITC with the Dm. octamer-mix; source: E. coli BL21 Rosetta2 (DE3), purified
Consider B5, for which the binding result in test [2] is “binds”.

B6: peptide corresponding to APLF^459–474 (peptide)
peptide: Ac-PNEYDLNDSFLDDEEE-NH2
notes: human APLF residues 459-474; source: synthetic peptide, bought: Biomatik
As for B6, in test [3], the binding result is reported as “binds”.
